Substitutions are numbered along the chain they refer to.

T1: human CD84 on cells (human) (UniProt Q9UIB8)
T1 sequence (looked up): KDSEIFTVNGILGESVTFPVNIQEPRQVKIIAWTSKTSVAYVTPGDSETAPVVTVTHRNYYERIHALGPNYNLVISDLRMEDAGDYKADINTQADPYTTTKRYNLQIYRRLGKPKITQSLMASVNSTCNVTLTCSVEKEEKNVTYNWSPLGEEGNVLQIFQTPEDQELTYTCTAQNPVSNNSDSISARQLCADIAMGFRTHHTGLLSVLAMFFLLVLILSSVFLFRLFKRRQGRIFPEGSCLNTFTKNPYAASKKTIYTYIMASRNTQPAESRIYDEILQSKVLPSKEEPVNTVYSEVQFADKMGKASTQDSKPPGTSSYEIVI

T2: Human CD84 produced by mammalian cells (human) (UniProt Q9UIB8)
T2 sequence (looked up): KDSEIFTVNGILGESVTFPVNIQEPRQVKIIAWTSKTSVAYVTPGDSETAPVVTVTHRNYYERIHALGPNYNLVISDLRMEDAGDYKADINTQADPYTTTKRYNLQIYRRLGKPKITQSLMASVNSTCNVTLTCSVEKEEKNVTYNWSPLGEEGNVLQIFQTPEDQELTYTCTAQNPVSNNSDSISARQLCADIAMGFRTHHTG

B1: GYCD84.5.171 (antibody, mouse IgG1, V domains shown)
VH: EVQLVESGGGLVQPKGSLKLACAASGFTFNIYAMNWVRQAPGKGLEWVARIRSKSNNYARFYADSVKDRFTISRDDSQSMLYLQMNNLKTEDTAMYYCVRPLRSYFSMDYWGQGTSVTVSS
VL: SIVMTQSPKSMSMSVGERVTLSCKASENVDTYVSWYQQKPEQSPKLLIYGASNRYTGVPDRFTGSGSATDFTLTISSVKAEDLADYHCGQTYSYPWTFGGGTKLEIK
B2: GYCD84.3.89 (antibody, mouse IgG1, V domains shown)
VH: EVKLLESGGGLVQPGGSLKLSCAASGFGFSRSWMSWVRQAPGKGLEWIGEINPDSSTINYTPSLKDKFIISRDNAKNTLFLQMSKVRSEDTALYYCATFYDGYSIYWYFDVWGAGTTVTVSS
VL: DVLMTQTPLSLPVSLGDQASISCRSSQSIVHSNGDTYLEWYLQKPGQSPKLLIYKVSNRFSGVPDRFSGSGSGTDFTLKISRVEAEDLGVYYCFQGSHVPRTFGGGTKLEIK
B3: GYCD84.1-207 (antibody, mouse IgG1, V domains shown)
VH: EVKLLESGGGLVQPGGSLKLSCAASGFDFSRYWMSWVRQAPGKGLEWIGEINPDSSTINYTPSLKDKFIISRDNAKNTLYLQMSKVRSEDTALYYCARPGPTVVATYWYFDVWGAGTTVTVSS
VL: B2 VL with D35N, N58S, G71A
B4: 152-1D5 (antibody, mouse IgG1, V domains shown)
VH: QVQLQQPGAEVVQPGTSVKLSCKASGYNFTNYWINWVKLRPGQGLEWIGDIYPVSGTTNYNEKFKRKATLTVDTSSSTGNMQLSSLASEDSALYYCASGTGRFAYWGQGTLVTVSA
VL: DIVLTQSPASLAVSLGQRATISCRASQSVSTSSYSYMHWYQQKPGQPPKLLIKFASNLESGVPARFSGSGSGTDFTLNIHPVEEEDTATYYCQHSWEIPYTFGGGTKLEIK
B5: GYCD84.1-226 (antibody, mouse IgG1, V domains shown)
VH: QVQLQQPGAELVKPGTSVKLSCKASGYNFTRYWINWVKLRPGQGLEWIGDIYPGSGSTNYNEKFKSKATLTVDTSSSTAYMQLSRLASEDSALYYCARDTTIAYWGQGTLVTVSA
VL: B4 VL with A9T, S30T, S33R
B6: GYCD84.1-97 (antibody, mouse IgG2a, V domains shown)
VH: QVQLQQPGAELVKPGTSVKLSCKASGYNFTSYWINWVKLRPGQGLEWIGDIYLGSGSTNYNEKFKSKATLTVDTSSSSAYMQLSSLVSEDSALYYCATSGGYLGYWGQGTTLTVSS
VL: B4 VL
B7: GYCD84.3.298 (antibody, mouse IgG1, V domains shown)
VH: QVTLKESGPGILQPSQTLSLTCSFSGFSLSTSGMGVGWIRQPSGKGLEWLAHIWWDDVKRYNPALRSRLTISKDTSSSQVFLNIASVDTADTATYYCTRIAVTYFFDFWGQGTTLTVSS
VL: DIQMTQSPASLSASVGETVTITCRASENIFSSFAWYQQKRGRSPQLLVYNARTLAEGVPSRFSGSGSGTQFSLKINSLQPEDFGTYFCQHHYASPFTFGSGTELGVK
B8: GYCD84.2.27 (antibody, mouse IgG1, V domains shown)
VH: QVTLKESGPGILQPSQTLSLTCSFSGFSLTTSGMGVGWIRQPSGKGLEWLAHIWWDDVKRYNPALKSRLTISKDTSSSQVFLKIASVDTADTASYYCARMSTSYYFDYWGQGTTLTVSS
VL: DIVMTQSHKFMSTSLGDRVSISCKASQSLFTSVAWYQQKPGQSPKLLIYSASYRYTGVPDRFTGSGSGTDFTFTISSVQAEDLAVYYCQQHYSSPFTFGSGTKLGIK
B9: GYCD84.2.32 (antibody, mouse IgG1, V domains shown)
VH: EVQLQQSGPELEKPGASVKISCKASGYSFTGYNMNWVKQSNGKSLEWIGNIDPYYGGTNYNQKFKGKATLTVDKSSSTAYMQLKSLTSEDSAVYYCARGLLSGSFPYWGQGTLVTVSA
VL: DIQMTQSPASLSASVGETVTITCRASENIYSYLAWYQQKQGKSPQLLVYNAKTLAEGVPSRFSGSGSGTQFSLKINSLHPEDFGSYFCQHHYGSPLTFGAGTKLEVK
B10: GYCD84.1-7 (antibody, mouse IgG1, V domains shown)
VH: B8 VH with T30S, S94T, S101R
VL: B9 VL with Y30F, Y32S, K39R, H79Q, F87Y, G93A, S94T, L96F, A100S, V106I
B11: GYCD84.1-108 (antibody, mouse IgG2a, V domains shown)
VH: QVQLQQSGAELVRPGTSVKMSCKAAGYTFTNYWIGWVRQRPGHGLEWIGDIYPGGGYTNYNENFKGKATLTADTSSSTAYMQLSSLTSEDSAIYYCARSTTYYSSYWCFDVWGPGTTVTVSS
VL: DIVMTQSPSSLSVSAGEKVTMSCKSSQSLLNSGNQANYLAWYQQKPGQPPKLLINGASTRESGVPDRFTGSGSGTDFTLTISSVQAEDLAVYYCQNDHSYPFTFGSGTKLEIK
B12: R3-G7 (scFv)
scFv: QVQLVESGGGVVQPGRSLRLSCTASGFTFSSYPMHWVRQAPGKGLEWVAAISYHGRNKFYADSVKGRFTISRDDLRSTLYLQMNNLKADDTAVYSCARDRDATPGGTGVGNHGMAVWGQGTTVTVSSGGGGSGGGGSGGGGSGGGGASEIVLTQSPLSLPVTPGEPASISCKSSQSLLHSSGYNYLDWYLQKPGQSPQLLIHMGSNRASGVPARFSGSGSGTDFTLRISRVEAEDVGVYYCMQGLQTPPTFGGGTKLEIK
B13: R3-H3 (scFv)
scFv: EVQLVESGGGLVQPGGSLRLSCAASGFTFSDNAMSWVRQAPGKGLEWVSAISGTGRTTYYADSVKGRFTISRDNSKNTLYLQMNSLRAEDTAVYYCAKWDCSDGRCYWAYWGQGTLVTVSSGGGGSGGGGSGGGGSGGGGASEIVLTQSPLSLPVTLGQPASISCRSSQSLVYSDGDTYLNWFQQRPGQSPRRLIYKVSNRDSGVPDRFSGSGSGTDFTLKISRVEAEDVGVYYCMQGTHWPPNTFGQGTRLEIK

The first assay concerns the target T1, human CD84 on cells (human). Description: flow cytometry, hybridoma supernatant at equal antibody concentration, 300.19-CD84+ cells. On the technique in general: A flow cytometer gives signals particle by particle.
Regarding B1, the 300.19-CD84 binding turned out to be 93.2%.
B2 registered a 300.19-CD84 binding of 83%.
Regarding B3, the 300.19-CD84 binding came out at 94.2%.
B4 gave a 300.19-CD84 binding of 92.5%.
Turning to B5, the 300.19-CD84 binding stood at 98.1%.
In turn, B6 displayed a 300.19-CD84 binding of 97.7%.
With B7, the 300.19-CD84 binding was 93.5%.
For the molecule B8, the 300.19-CD84 binding came to 96.3%.
In turn, B9 registered a 300.19-CD84 binding of 99%.
B10: the 300.19-CD84 binding came to 92.6%.
B11 gave a 300.19-CD84 binding of 93.9%.

The next assay shares this target. The assay can be described thus: flow cytometry, hybridoma supernatant at equal antibody concentration, monocytes.
As for B1, the Monocyte binding is 64.8%.
B2 returned a Monocyte binding of 72.7%.
In turn, B4 yielded a Monocyte binding of 72%.
B5 yielded a Monocyte binding of 76.1%.
On the same count and under the same terms, under B7 stands 53.9%; under B8, 77.5%; under B9, 78.2%.
The same measure, in the same setting: the value for B10 was 64.4%.
In turn, B11 yielded a Monocyte binding of 41.3%.

Another assay has the same target. The assay can be described thus: flow cytometry, hybridoma supernatant at equal antibody concentration, lymphocytes.
Regarding B1, the Lymphocyte binding came to 26.8%.
B2 showed a Lymphocyte binding of 24.9%.
The same measure, in the same setting: under B4 stands 24.4%; under B5, 28.7%.
Turning to B7, the Lymphocyte binding is 16.6%.
As to B8, the Lymphocyte binding amounted to 25.4%.
B9: the Lymphocyte binding is 28.7%.
Regarding B10, the Lymphocyte binding was 19%.
Regarding B11, the Lymphocyte binding came to 13.6%.

Another assay shares this target. The assay can be described thus: flow cytometry, hybridoma supernatant at equal antibody concentration, Ramos cells.
B1 showed a Ramos binding of 35.1%.
With B2, the Ramos binding was 91.3%.
Still for that read-out and setting: under B4 stands 73.4%.
As to B5, the Ramos binding turned out to be 80.2%.
On the same count and under the same terms, the value for B7 was 28.3%.
B8 had a Ramos binding of 66.3%.
As for B9, the Ramos binding was 78.6%.
Regarding B10, the Ramos binding worked out at 59%.
For the molecule B11, the Ramos binding was 31.2%.

The target is the same in a further assay. The assay can be described thus: flow cytometry, hybridoma supernatant at equal antibody concentration, Raji cells.
For B1, the Raji binding came out at 73.9%.
Consider B2, for which the Raji binding was found to be 99.1%.
Regarding B4, the Raji binding was found to be 97.6%.
Molecule B5 had a Raji binding of 99.9%.
For B7, the Raji binding stood at 45.9%.
For B8, the Raji binding is 97.5%.
Turning to B9, the Raji binding was determined as 99.5%.
Turning to B10, the Raji binding stood at 91.4%.
B11 yielded a Raji binding of 30.3%.

In a further assay the target is T2, Human CD84 produced by mammalian cells (human). Description: monoclonal phage ELISA, plate coated with CD84 antigen, anti-phage HRP antibody. (In an ELISA, binding on a coated surface is turned into a signal by an enzyme label.)
With B12, the ELISA signal on antigen (Ag), read at 450 nm (absorbance at 450 nm) was 2.4.
Same read-out and setting: the value for B13 was 0.696.
